Columns and labels:
Assay in all cases: flow cytometry on Ba/F3 cells expressing the truncated PODXL2
[1] = target: T1, PODXL2, positions 1 to 380 (human, UniProt O00592 23-412)
T1 construct: One of the 14 C-terminal truncations; Expressed on Ba/F3 cells; also called R380
T1 sequence: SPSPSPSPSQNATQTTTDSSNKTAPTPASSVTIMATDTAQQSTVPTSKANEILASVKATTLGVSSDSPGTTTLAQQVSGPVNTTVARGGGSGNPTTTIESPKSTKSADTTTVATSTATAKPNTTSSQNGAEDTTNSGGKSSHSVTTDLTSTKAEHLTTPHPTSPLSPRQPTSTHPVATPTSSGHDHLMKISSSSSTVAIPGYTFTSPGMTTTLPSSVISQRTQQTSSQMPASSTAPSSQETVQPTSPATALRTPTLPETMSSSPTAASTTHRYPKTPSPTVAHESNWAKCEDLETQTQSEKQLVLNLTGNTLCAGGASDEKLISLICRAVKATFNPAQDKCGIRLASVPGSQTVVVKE
Protocol: (§1) To each sample of the cell suspension, 50 μl of the hybridoma culture supernatant or 2-μg/ml of the purified antibody (hereinafter, referred to as an “antibody solution”) was added, and the antibody was reacted with the cells. As an isotype control of the antibody solution, a wash buffer containing 2 μg/ml of each of mouse IgG1 (BioLegend, 400412), mouse IgG2a (BioLegend, 400224), and mouse IgG2b (BioLegend, 400324) was used. The hybridoma culture supernatant was reacted with the target cells at room temperature for 30 minutes, followed by centrifugation at 700×g for 2 minutes. Then, a culture supernatant was removed. Further, 100 μl of a wash buffer was added, followed by centrifugation at 700×g for 2 minutes again. A supernatant was removed. Then, the cells were washed.
(§2) Next, to the cell pellets after the washing, 50 μl of Goat anti-mouse IgG, F(ab′) 2-PE (PE=phycoerythrin, Beckman Coulter, IM0855) diluted 200-fold with a wash buffer was added as a secondary antibody for detection, and reacted in the dark at room temperature for 30 minutes. The reaction was followed by centrifugation at 700×g for 2 minutes. A supernatant was removed. Further, 100 μl of a wash buffer was added, followed by centrifugation at 700×g for 2 minutes again. A supernatant was removed. Then, the cells were washed. Thereafter, the cells were suspended in an appropriate amount of a wash buffer. The reactivity between the antibody and the cells was analyzed by a flow cytometer (Beckman Coulter, FC500 MPL).
(§3) Thereafter, by the same method as in Example 1 (4) (the virus packaging and thereafter), Ba/F3 cells containing the PODXL2 gene sequences of various chain lengths were prepared. Further, by the same method as in Example 4, the reactivity between the ACT36-27_{—}5D1 antibody and the Ba/F3 cells expressing the PODXL2 molecules of various chain lengths was analyzed by a flow cytometer (FIG. 10).

[2] = target: T2, PODXL2, positions 1 to 370 (human, UniProt O00592 23-402)
T2 construct: One of the 14 C-terminal truncations; Expressed on Ba/F3 cells; also called R370
T2 sequence: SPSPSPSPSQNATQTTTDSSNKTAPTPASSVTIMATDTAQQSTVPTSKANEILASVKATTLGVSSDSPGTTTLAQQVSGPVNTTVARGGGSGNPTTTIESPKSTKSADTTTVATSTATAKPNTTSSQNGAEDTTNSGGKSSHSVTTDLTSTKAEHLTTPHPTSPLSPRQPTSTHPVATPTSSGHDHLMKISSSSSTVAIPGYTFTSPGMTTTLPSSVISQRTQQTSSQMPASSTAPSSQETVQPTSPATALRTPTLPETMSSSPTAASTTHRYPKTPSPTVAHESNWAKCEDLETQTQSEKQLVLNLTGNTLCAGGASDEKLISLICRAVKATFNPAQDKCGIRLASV
Protocol: as §1, §2, §3

[3] = target: T3, PODXL2, positions 1 to 310 (human, UniProt O00592 23-342)
T3 construct: One of the 14 C-terminal truncations; Expressed on Ba/F3 cells; also called R310
T3 sequence: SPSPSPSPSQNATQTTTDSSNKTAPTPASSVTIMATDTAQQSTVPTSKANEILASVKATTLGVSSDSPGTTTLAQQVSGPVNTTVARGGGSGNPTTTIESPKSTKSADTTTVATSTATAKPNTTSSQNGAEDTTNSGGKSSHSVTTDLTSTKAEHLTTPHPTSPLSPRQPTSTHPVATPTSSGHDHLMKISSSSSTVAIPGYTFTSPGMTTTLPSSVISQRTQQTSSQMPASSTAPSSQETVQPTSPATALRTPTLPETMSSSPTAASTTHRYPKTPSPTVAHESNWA
Protocol: as §1, §2, §3

[4] = target: T4, PODXL2, positions 1 to 350 (human, UniProt O00592 23-382)
T4 construct: One of the 14 C-terminal truncations; Expressed on Ba/F3 cells; also called R350
T4 sequence: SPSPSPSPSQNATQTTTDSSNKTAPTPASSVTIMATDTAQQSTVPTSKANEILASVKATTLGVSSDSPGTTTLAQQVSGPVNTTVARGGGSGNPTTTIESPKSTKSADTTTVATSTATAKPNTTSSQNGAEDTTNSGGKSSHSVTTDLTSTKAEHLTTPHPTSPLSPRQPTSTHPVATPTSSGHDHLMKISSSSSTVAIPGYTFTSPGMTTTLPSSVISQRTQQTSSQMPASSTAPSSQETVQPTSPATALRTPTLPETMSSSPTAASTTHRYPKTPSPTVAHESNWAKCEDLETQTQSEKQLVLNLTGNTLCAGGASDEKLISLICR
Protocol: as §1, §2, §3

[5] = target: T5, PODXL2, positions 1 to 390 (human, UniProt O00592 23-422)
T5 construct: One of the 14 C-terminal truncations in 10-residue steps; Expressed on Ba/F3 cells; also called R390
T5 sequence: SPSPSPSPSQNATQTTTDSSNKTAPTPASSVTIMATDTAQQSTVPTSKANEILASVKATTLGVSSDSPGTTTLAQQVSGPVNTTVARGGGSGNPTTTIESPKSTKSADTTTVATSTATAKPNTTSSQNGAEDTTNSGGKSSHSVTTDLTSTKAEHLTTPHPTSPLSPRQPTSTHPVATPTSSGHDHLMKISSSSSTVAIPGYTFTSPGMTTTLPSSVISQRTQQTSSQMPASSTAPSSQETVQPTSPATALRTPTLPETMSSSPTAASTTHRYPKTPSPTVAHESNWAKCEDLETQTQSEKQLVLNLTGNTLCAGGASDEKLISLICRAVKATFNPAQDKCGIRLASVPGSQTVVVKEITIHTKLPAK
Protocol: as §1, §2, §3

Measured: binding result

B1: ACT36-27-5D1 antibody (antibody, V domains shown)
VH: EVQLQQSGPELVKPGASVKMSCKASGYTFTSYVMHWVKQKPGQGLEWIGYIHPYNDGIKYNEKFKGKATLTSDKSSSTAYMDLSSLTSEDSAVYYCARSWDWYFDVWAAGTTVTVSS
VL: QIVLTQSPAIMSASPGEKVSMTCSASSSVSYMHWYQQKSGTSPKRWIYDTSKLASGVPARFSGSGSGTSYSLTISSMEAEDAATYYCLQWSSNPPTFGGGTKLE
notes: also called anti-PODXL2 antibody ACT36-27-5D1; anti-ACT36-27-5D1 monoclonal antibody
no binding: all assays above

From patent US20120107364A1 (ACTGEN, published 2012)
